{
  "source": "patent US20030152959",
  "about": "“Method of using estrogen-related receptor alpha (ERRalpha) status to determine prognosis, treatment strategy and predisposition to breast cancer, and method of using ERRalpha as a therapeutic target for the treatment of breast cancer” (published 2003)",
  "binders": {"B1": {"name": "elk1 site (dsDNA)", "DNA 1": "CTCCCATCTCACTTAAGGTCAAAGCCAGGGTCC", "DNA 2": "GGACCCTGGCTTTGACCTTAAGTGAGATGGGAG"}, "B2": {"name": "IGF2 site 2 (dsDNA)", "DNA 1": "CTGTCGGCAGGAACAAGGTCACCCCTTGGCGTT", "DNA 2": "AACGCCAAGGGGTGACCTTGTTCCTGCCGACAG"}, "B3": {"name": "aromatase site (dsDNA)", "DNA 1": "CCTGAGACTCTACCAAGGTCAGAAATGCTGCAA", "DNA 2": "TTGCAGCATTTCTGACCTTGGTAGAGTCTCAGG"}, "B4": {"name": "Prolactin site 2 (dsDNA)", "DNA 1": "CAAATTTGAAACTAAAGGTCACAGGCTGCTTTA", "DNA 2": "TAAAGCAGCCTGTGACCTTTAGTTTCAAATTTG"}, "B5": {"name": "Cathepsin D site (dsDNA)", "DNA 1": "TGGCATATTGGGTGAAGGTCAAGGGAGTGGCTT", "DNA 2": "AAGCCACTCCCTTGACCTTCACCCAATATGCCA"}, "B6": {"name": "IGF1R site (dsDNA)", "DNA 1": "GCTCCGGCTCGCTGAAGGTCACAGCCGAGGCGA", "DNA 2": "TCGCCTCGGCTGTGACCTTCAGCGAGCCGGAGC"}, "B7": {"name": "ERβ promoter site (dsDNA)", "DNA 1": "GGTGCTCCCACTTAGAGGTCACGCGCGGCGTCG", "DNA 2": "CGACGCCGCGCGTGACCTCTAAGTGGGAGCACC"}, "B8": {"name": "Prolactin site 1 (dsDNA)", "DNA 1": "TGTCCATTTTCTTCTAGGTCAACCCCAATGGTA", "DNA 2": "TACCATTGGGGTTGACCTAGAAGAAAATGGACA"}, "B9": {"name": "IGF2 site 3 (dsDNA)", "DNA 1": "GGTGGACGCTGCTGAAGGTGAGCGAGACCCCGG", "DNA 2": "CCGGGGTCTCGCTCACCTTCAGCAGCGTCCACC"}, "B10": {"name": "BRCA2 site (dsDNA)", "DNA 1": "AGAACATCCCTTTTAAGGTCAGAACAAAGGTAT", "DNA 2": "ATACCTTTGTTCTGACCTTAAAAGGGATGTTCT"}, "B11": {"name": "PgR site 3 (dsDNA)", "DNA 1": "TCCTAAGGACTGTCAAGGTCATCAAATACAAGG", "DNA 2": "CCTTGTATTTGATGACCTTGACAGTCCTTAGGA"}, "B12": {"name": "cyclin D1 site (dsDNA)", "DNA 1": "GCGAGGAAAGCGTGAAGGTGATTTCAGTTAATT", "DNA 2": "AATTAACTGAAATCACCTTCACGCTTTCCTCGC"}, "B13": {"name": "ERα promoter site (dsDNA)", "DNA 1": "ATGTTTGGTATGAAAAGGTCACATTTTATATTC", "DNA 2": "GAATATAAAATGTGACCTTTTCATACCAAACAT"}, "B14": {"name": "pS2 site 1 (dsDNA)", "DNA 1": "TCCCTTCCCCCTGCAAGGTCACGGTGGCCACCC", "DNA 2": "GGGTGGCCACCGTGACCTTGCAGGGGGAAGGGA"}, "B15": {"name": "EGF site (dsDNA)", "DNA 1": "CAAATAATGGGCTGAAGGTGAACTATCTTTACT", "DNA 2": "AGTAAAGATAGTTCACCTTCAGCCCATTATTTG"}, "B16": {"name": "BRCA1 site (dsDNA)", "DNA 1": "GTAATTGCTGTACGAAGGTCAGAATCGCTACCT", "DNA 2": "AGGTAGCGATTCTGACCTTCGTACAGCAATTAC"}, "B17": {"name": "pS2 site 2 (dsDNA)", "DNA 1": "GTAGGACCTGGATTAAGGTCAGGTTGGAGGAGA", "DNA 2": "TCTCCTCCAACCTGACCTTAATCCAGGTCCTAC"}, "B18": {"name": "PgR site 2 (dsDNA)", "DNA 1": "TCCTTGCTAAACCCAAGGTCATAAATCTTTTCT", "DNA 2": "AGAAAAGATTTATGACCTTGGGTTTAGCAAGGA"}, "B19": {"name": "ErbB2 ERRE (dsDNA)", "DNA 1": "AAAGGAACTTTCCCAAGGTCACAGAGCTGAGCT", "DNA 2": "AGCTCAGCTCTGTGACCTTGGGAAAGTTCCTTT"}, "B20": {"name": "PgR site 1 (dsDNA)", "DNA 1": "AAAATTGTTTTGTCTAGGTCATTTGCATTTTCA", "DNA 2": "TGAAAATGCAAATGACCTAGACAAAACAATTTT"}, "B21": {"name": "hMDM2 site (dsDNA)", "DNA 1": "GGGAGTTCAGGGTAAAGGTCACGGGGCCGGGGC", "DNA 2": "GCCCCGGCCCCGTGACCTTTACCCTGAACTCCC"}, "B22": {"name": "Prolactin site 3 (dsDNA)", "DNA 1": "CCTCAGAGTGGCTCAGGGTCAGAGAAGGTAGAG", "DNA 2": "CTCTACCTTCTCTGACCCTGAGCCACTCTGAGG"}, "B23": {"name": "Consensus palindromic ERE (dsDNA)", "DNA 1": "TAAGCTTAGGTCACAGTGACCTAAGCTTA", "DNA 2": "TAAGCTTAGGTCACTGTGACCTAAGCTTA"}},
  "data": [
    {"target": "T1, ERRα1 (estrogen-related receptor alpha 1, NR3B1) (Homo sapiens, UniProt P11474 P11474:1-423)", "T1 sequence": "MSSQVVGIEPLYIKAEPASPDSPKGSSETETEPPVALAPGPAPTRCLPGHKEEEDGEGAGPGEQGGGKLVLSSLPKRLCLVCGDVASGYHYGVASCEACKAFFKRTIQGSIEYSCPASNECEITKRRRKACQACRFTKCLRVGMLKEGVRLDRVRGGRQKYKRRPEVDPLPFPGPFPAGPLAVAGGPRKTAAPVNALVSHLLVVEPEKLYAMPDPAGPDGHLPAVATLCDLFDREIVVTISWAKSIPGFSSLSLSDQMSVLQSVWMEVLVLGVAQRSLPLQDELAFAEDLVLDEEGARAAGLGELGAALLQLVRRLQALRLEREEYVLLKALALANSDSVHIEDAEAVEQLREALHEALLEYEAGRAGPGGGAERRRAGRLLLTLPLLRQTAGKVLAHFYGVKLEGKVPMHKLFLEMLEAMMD", "assay": "competition; competition EMSA, COS extract", "details": "tags: COS / COS-M6 whole-cell extract, pcDNA3.1-hERRα1 or pRSV-hERRα1", "units": {"binding signal": "RBA vs reference ERRE"}, "values": [
      {"binder": "B1", "binding signal": 0.22},
      {"binder": "B2", "binding signal": 0.25},
      {"binder": "B3", "binding signal": 0.17},
      {"binder": "B4", "binding signal": 0.33},
      {"binder": "B5", "binding signal": 0.49},
      {"binder": "B6", "binding signal": 0.36},
      {"binder": "B7", "binding signal": 0.54},
      {"binder": "B8", "binding signal": 0.06},
      {"binder": "B9", "binding signal": 0.06},
      {"binder": "B10", "binding signal": 0.08},
      {"binder": "B11", "binding signal": 1.45},
      {"binder": "B12", "binding signal": 0.07},
      {"binder": "B13", "binding signal": 0.11},
      {"binder": "B14", "binding signal": 0.49},
      {"binder": "B15", "binding signal": 0.14},
      {"binder": "B16", "binding signal": 0.17},
      {"binder": "B17", "binding signal": 0.12},
      {"binder": "B18", "binding signal": 0.91},
      {"binder": "B19", "binding signal": 1.01},
      {"binder": "B20", "binding signal": 0.14},
      {"binder": "B21", "binding signal": 0.35},
      {"binder": "B22", "binding signal": 0.07}
    ]},
    {"target": "T1, ERRα1 (estrogen-related receptor alpha …)", "assay": "cell_activity; HeLa, 3xERE-TK-luc reporter", "details": "tags:", "units": {"activity": "fold activation"}, "values": [
      {"binder": "B23", "activity": 2.5}
    ]}
  ]
}
